According to publication PMC10766989, “The juxtamembrane linker of synaptotagmin 1 regulates Ca^2+ binding via liquid-liquid phase separation” (Nature Communications, 2024):

Biological target: the molecule itself
Test: dynamic light scattering; protein in solution, 10 µM, 25 mM Tris pH 7.4, 3% PEG 8000, NaCl as indicated (lower ionic strength); diameters modelled as Rayleigh spheres; monomers against higher ordered structures

B1: GFP-syt1 (80–142) (domain or fragment, UniProt P21707 80-142, looked up)
chain: KKCLFKKKNKKKGKEKGGKNAINMKDVKDLGKTMKDQALKDDDAETGLTDGEEKEEPKEEEKL
notes: synaptotagmin 1 (syt1), juxtamembrane linker, residues 80–142; also called GFP-tagged juxtamembrane linker (80–142); isolated juxtamembrane linker (residues 80–142); source: E. coli BL21(DE3), purified (Ni-NTA, eluted with 200 mM imidazole, dialysed); not shown: msGFP (no linker), N-terminal, kept
Question: Does B1 bind?
Answer: binds
